These results are taken from patent publication US20050153894.

Where only a bound is given, the exact number is not on record here.

The term IC50 denotes the concentration that inhibits the measured activity by half. A low value points to higher potency.

In test [1] the target is cyclin A (human), P20248. The test can be described thus: competition. The note with it: modification not given.
Test [2] addresses cyclin D1 (human), P24385. In words: competition. Conditions: modification not given.

Chain of cyclin D1 (human), P24385 (P24385 whole entry): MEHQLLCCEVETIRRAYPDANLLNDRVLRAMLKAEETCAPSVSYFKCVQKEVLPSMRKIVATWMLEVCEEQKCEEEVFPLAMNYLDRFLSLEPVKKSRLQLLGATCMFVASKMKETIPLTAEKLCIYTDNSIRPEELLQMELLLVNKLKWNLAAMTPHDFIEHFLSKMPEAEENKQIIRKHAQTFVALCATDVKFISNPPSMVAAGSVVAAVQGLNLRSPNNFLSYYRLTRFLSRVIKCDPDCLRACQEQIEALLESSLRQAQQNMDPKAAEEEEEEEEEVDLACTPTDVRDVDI
Chain of cyclin A (human), P20248 (P20248 whole entry): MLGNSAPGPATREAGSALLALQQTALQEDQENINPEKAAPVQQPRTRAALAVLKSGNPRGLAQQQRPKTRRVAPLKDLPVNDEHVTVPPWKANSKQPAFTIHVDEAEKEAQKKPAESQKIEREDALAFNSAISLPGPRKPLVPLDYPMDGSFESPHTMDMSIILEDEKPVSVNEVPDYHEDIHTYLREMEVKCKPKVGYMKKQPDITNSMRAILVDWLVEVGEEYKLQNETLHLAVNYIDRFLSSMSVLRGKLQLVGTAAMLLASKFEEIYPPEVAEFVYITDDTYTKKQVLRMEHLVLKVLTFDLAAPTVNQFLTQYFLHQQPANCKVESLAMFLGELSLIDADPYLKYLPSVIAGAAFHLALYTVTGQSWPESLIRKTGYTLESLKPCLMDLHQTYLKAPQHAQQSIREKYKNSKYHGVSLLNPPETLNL

Consider RRLNF [Ac-RRLNF-NH2], for which the IC50 in test [1] is 8.15 µM.

HSKRRLFG yielded an IC50 in test [2] of more than 200 µM.

HSKRRLDL gave an IC50 in test [2] of more than 200 µM.

Take PVKRRLDL [E2F1 PVKRRLDL]: the IC50 in test [2] was more than 100 µM.
